The chains are these.
B1: Integrin beta-3 (Homo sapiens), P05106 (parent)
chain: MRARPRPRPLWATVLALGALAGVGVGGPNICTTRGVSSCQQCLAVSPMCAWCSDEALPLGSPRCDLKENLLKDNCAPESIEFPVSEARVLEDRPLSDKGSGDSSQVTQVSPQRIALRLRPDDSKNFSIQVRQVEDYPVDIYYLMDLSYSMKDDLWSIQNLGTKLATQMRKLTSNLRIGFGAFVDKPVSPYMYISPPEALENPCYDMKTTCLPMFGYKHVLTLTDQVTRFNEEVKKQSVSRNRDAPEGGFDAIMQATVCDEKIGWRNDASHLLVFTTDAKTHIALDGRLAGIVQPNDGQCHVGSDNHYSASTTMDYPSLGLMTEKLSQKNINLIFAVTENVVNLYQNYSELIPGTTVGVLSMDSSNVLQLIVDAYGKIRSKVELEVRDLPEELSLSFNATCLNNEVIPGLKSCMGLKIGDTVSFSIEAKVRGCPQEKEKSFTIKPVGFKDSLIVQVTFDCDCACQAQAEPNSHRCNNGNGTFECGVCRCGPGWLGSQCECSEEDYRPSQQDECSPREGQPVCSQRGECLCGQCVCHSSDFGKITGKYCECDDFSCVRYKGEMCSGHGQCSCGDCLCDSDWTGYYCNCTTRTDTCMSSNGLLCSGRGKCECGSCVCIQPGSYGDTCEKCPTCPDACTFKKECVECKKFDRGALHDENTCNRYCRDEIESVKELKDTGKDAVNCTYKNEDDCVVRFQYYEDSSGKSILYVVEEPECPKGPDILVVLLSVMGAILLIGLAALLIWKLLITIHDRKEFAKFEEERARAKWDTANNPLYKEATSTFTNITYRGT

The test covers variants of B1. The following applies: with tln1_mouse Tln1, P26039.
Chain of tln1_mouse Tln1, P26039 (P26039 whole entry): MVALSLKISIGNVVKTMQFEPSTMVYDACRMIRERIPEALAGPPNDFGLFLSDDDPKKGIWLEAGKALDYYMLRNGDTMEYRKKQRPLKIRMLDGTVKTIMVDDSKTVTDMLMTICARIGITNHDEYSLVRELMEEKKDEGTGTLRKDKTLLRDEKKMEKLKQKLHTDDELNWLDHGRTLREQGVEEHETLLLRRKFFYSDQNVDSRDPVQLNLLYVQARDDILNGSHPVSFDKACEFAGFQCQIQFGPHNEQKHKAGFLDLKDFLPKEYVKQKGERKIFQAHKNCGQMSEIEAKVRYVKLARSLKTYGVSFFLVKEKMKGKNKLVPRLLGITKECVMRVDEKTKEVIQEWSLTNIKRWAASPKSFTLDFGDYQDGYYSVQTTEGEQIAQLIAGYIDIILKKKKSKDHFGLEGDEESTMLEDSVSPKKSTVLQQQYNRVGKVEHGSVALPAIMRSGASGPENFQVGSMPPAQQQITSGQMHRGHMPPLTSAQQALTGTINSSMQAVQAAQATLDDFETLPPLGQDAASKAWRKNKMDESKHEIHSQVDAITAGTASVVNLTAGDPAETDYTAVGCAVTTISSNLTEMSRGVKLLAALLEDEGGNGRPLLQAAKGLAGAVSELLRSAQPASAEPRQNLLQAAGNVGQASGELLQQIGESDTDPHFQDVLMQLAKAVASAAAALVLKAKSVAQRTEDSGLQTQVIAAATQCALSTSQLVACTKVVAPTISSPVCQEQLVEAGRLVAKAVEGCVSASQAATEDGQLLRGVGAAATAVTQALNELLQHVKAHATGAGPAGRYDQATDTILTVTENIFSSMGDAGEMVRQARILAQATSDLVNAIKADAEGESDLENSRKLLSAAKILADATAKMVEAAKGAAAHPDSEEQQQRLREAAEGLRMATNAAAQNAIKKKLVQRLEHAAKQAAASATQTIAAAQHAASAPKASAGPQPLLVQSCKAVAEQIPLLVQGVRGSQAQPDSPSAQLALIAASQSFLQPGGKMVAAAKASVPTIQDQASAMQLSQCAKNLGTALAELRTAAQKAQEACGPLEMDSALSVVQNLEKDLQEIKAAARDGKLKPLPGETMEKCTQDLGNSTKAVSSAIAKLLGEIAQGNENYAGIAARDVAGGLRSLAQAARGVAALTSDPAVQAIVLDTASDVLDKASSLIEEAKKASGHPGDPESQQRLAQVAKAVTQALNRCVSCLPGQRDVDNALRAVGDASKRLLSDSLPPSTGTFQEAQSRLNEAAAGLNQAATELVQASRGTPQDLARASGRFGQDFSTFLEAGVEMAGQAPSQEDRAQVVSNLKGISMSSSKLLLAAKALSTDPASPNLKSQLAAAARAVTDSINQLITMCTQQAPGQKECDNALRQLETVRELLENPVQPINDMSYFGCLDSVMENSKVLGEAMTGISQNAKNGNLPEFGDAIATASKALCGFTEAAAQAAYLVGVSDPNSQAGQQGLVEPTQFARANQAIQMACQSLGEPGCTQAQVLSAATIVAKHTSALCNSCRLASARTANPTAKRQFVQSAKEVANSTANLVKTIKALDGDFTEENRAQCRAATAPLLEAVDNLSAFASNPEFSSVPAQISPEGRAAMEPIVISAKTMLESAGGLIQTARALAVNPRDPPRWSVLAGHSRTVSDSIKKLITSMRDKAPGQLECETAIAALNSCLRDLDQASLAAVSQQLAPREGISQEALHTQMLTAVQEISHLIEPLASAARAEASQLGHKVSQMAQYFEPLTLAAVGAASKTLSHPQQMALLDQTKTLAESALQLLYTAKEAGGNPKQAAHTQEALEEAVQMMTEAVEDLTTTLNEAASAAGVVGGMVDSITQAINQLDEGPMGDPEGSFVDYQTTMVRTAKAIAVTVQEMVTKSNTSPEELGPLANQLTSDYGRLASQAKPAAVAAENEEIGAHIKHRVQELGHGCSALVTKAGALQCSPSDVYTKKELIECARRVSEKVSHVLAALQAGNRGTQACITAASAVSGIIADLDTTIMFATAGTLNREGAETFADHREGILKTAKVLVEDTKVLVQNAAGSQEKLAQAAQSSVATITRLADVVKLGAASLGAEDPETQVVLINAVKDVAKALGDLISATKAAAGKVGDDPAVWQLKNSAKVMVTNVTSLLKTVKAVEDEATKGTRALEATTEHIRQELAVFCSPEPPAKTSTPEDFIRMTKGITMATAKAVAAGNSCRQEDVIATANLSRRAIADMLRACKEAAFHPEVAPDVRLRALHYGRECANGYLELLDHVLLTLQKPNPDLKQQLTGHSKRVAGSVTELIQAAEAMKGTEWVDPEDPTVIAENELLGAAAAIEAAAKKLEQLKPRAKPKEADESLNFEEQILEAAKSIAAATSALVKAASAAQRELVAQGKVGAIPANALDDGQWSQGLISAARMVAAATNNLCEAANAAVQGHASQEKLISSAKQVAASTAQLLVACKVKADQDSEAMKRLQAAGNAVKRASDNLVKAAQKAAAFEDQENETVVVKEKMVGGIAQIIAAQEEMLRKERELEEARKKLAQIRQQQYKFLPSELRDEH
For the variant W765A, the “effect of a mutation on the interaction” value is recorded as “disrupting interaction”.

Take F753A;F756A: the “effect of a mutation on the interaction” value was “decreasing interaction”. The entry for Y773A is “decreasing interaction”.
